# Results taken from US20260250421A1 (BIOCYTOGEN PHARMACEUTICALS BEIJING, published 2026).
# T1: His-tagged human PTK7 protein (human, UniProt Q13308 31-704)
# T1 construct: Bought protein; also called hPTK7-His; not shown: His tag
# T1 sequence: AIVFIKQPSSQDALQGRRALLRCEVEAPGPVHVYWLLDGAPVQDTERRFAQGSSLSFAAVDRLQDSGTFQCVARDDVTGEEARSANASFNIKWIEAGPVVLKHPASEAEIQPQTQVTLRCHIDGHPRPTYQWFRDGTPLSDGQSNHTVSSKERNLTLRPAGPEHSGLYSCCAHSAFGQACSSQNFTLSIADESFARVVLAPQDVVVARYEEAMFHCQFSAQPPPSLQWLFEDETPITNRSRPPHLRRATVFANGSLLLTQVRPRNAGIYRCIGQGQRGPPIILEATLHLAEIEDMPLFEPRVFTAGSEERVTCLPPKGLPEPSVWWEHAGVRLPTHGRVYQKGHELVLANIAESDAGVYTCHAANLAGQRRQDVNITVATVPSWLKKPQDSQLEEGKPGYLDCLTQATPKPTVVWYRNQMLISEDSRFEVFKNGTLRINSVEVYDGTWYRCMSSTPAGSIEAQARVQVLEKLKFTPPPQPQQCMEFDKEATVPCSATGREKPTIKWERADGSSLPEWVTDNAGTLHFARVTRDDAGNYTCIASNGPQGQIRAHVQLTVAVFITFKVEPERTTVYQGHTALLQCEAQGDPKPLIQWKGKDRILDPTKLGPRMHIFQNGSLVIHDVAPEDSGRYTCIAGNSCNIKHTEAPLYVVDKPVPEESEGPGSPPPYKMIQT
# T2: dog PTK7 on dog cancer cell lines (dog, UniProt A0A8I3N574 31-1070)
# T2 construct: whole, on cells; Endogenous protein on dog tumour cell lines; also called PTK7 on CMT-U27 and D-17 cells; dog cancer cells
# T2 sequence: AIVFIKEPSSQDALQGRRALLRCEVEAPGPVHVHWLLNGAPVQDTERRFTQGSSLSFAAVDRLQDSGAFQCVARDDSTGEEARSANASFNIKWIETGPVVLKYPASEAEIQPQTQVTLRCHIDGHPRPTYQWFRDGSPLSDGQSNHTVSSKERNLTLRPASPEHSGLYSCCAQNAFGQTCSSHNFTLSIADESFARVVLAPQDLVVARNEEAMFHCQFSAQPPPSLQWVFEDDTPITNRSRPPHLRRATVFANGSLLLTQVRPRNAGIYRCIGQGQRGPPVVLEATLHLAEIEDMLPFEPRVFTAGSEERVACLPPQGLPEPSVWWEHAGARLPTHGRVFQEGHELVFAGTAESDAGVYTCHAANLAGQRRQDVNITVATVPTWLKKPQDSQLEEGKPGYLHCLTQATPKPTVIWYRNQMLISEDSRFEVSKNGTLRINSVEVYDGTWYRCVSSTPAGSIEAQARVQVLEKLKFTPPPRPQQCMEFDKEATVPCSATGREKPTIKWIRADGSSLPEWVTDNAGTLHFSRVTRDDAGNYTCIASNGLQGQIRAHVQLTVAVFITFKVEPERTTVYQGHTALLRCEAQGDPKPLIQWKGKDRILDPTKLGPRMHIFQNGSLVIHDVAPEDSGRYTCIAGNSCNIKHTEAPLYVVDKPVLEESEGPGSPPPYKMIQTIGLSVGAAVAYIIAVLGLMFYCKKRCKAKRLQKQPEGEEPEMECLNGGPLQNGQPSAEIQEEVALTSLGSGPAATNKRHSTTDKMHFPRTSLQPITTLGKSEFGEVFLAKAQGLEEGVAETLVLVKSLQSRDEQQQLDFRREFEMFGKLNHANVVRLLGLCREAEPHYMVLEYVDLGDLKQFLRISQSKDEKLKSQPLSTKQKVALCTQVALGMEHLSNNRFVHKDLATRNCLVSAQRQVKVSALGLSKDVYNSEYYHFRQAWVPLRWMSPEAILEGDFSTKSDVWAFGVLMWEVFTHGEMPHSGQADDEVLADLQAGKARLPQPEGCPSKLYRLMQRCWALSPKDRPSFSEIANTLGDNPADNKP
# Key:
# [1] = target: T1, His-tagged human PTK7 protein; assay: BLI Octet binning on hPTK7-His; competitor 1A7
# Experimental: (§1) Relative positions of target protein epitope between a pair of purified anti-PTK7 antibodies were analyzed by Biolayer Interferometry (BLI) using ForteBio Octet system at 30° C. A total of […] purified antibodies were used: 1A7, 1A11, 1F2, 2A5, 2D11, 2F5, 3C4 and 3E6.
# (§2) 1×HBS-EP+ buffer (10 mM 4-(2-hydroxyethyl)-1-piperazineethanesulfonic acid (HEPES), 150 mM NaCl, 3 mM ethylenediaminetetraacetic acid (EDTA) and 0.05% P20, pH7.4) diluted from HBS-EP+ buffer (10×) was used as the running buffer throughout the experiment. His-tagged human PTK7 protein was captured at a flow rate of 10 μL/min, and 200 nM of antibody (Analyte 1) was injected at a flow rate of 30 μL/min to bind the ligand. Another antibody (Analyte 2) was injected under the same conditions to determine whether the binding of different antibodies interfered with each other. The binding time was 300 s for each antibody.
# (§3) The binding value of each antibody was obtained using Data Analysis HT 12.0. To quantify the interference of one antibody binding to another, a binding ratio was calculated to compare each pair of antibodies. The binding ratio is defined as the binding value of the second antibody (Analyte 2), divided by the binding value of the first antibody (Analyte 1). […] In general, antibody pairs that interfere with each other have the same or overlapping epitopes.
# [2] = target: T2, dog PTK7 on dog cancer cell lines; assay: flow cytometry, D-17 dog cells, Ab 5 ug/mL
# Experimental: The binding activity of anti-PTK7 antibodies to cancer cell lines was verified by flow cytometry. […] Purified anti-PTK7 antibody with a concentration of 5 μg/mL was added to each well and was incubated at 4° C. for 30 minutes. […] The cells were collected, and the mean fluorescence intensity (MFI) was determined. Human IgG1 was used as ISO control.
# [3] = target: T1, His-tagged human PTK7 protein; assay: BLI Octet binning on hPTK7-His; competitor 2A5
# Experimental: as §1, §2, §3
Binder,binding ratio [1],MFI [2],binding ratio [3]
"1F2 (antibody, V domains shown, also called anti-PTK7 antibody 1F2) VH: QVQLVQSGGGLVQPGGSLRLSCAASGFTFSRYEMNWVRQAPGKGLEWVSYINSIGSAINYADSVKGRFTISRDNAKNSLYLQMRSLRAEDTAVYYCVREDNWNPGYWGQGTLVTVSS VL: not shown",0.64,64100,0.71
"1A11 (antibody, V domains shown, also called anti-PTK7 antibody 1A11) VH: QVQLVQSGPGLVKPSETLSLTCTVSGGSINSYYWNWIRQPPGKGLEWIGYIYYSGSTNYNPSLKSRVTISVDTSKNQFSLKLSSVTAADTAVYYCARDPHDYIRGHFDLWGRGTLFTVSS VL: not shown",0.71,90600,0.75
"1A7 (antibody, human IgG1, V domains shown, also called anti-PTK7 antibody 1A7) VH: QVQLVESGGGVVQPGRSLRLSCAASGFTFSNYGMHWVRQAPGKGLEWVAVIYYDGSNKFYADSVKGRFTISRDNSKNTLYLQMSSLRAEDTAVYYCARDVAPPGSRAEYFHHWGQGTLVTVSS VL: not shown",0.08,120000,0.1
"2F5 (antibody, V domains shown, also called anti-PTK7 antibody 2F5) VH: QVQLVESGGGVVQPGRSLRLSCVASGFTFSNYGMHWVRQAPGKGLEWVAIIYYDGSNKYYADSVKGRFTISRDNSKNTLYLQMNSLRAEDTAVYYCARDVAAAGSRAEYLHHWGQGTLVTVSS VL: not shown",0.12,131000,0.12
"2A5 (antibody, V domains shown, also called anti-PTK7 antibody 2A5) VH: QVQLVQSGGGVVQPGRSLRLSCAASGFTFSNYGMHWVRQAPGKGLEWVAVIWYDGRNKYYADSVKGRFTISRDNSKNTLYLQMNSLRAEDTAVYYCARDVAPAGSRAEYFQNWGQGTLVTVSS VL: not shown",-0.02,95900,0.05
"2D11 (antibody, V domains shown, also called anti-PTK7 antibody 2D11) VH: QVQLVESGGGVVQPGRSLRLSCAASGFTFSSYGMHWVRQAPGKGLEWVAVIFYDGSNKYYADSVKGRFTISRDNSKNTLYLQMNSLRAEDTSVYYCARDVAAPGSRAEYFQNWGQGTLVTVSS VL: not shown",0.17,106000,0.15
"3C4 (antibody, V domains shown, also called anti-PTK7 antibody 3C4) VH: QVQLEQSRAEVKKPGESLRISCKGSGYSFTSYWISWVRQMPGKGLEWMGRIDPSDSYTNYNPSFQGHVTISADKSISTAYLQWSSLKASDTAMYYCARRDGSYFDFDYWGQGTLVTVSS VL: not shown",0.87,34600,0.93
"3E6 (antibody, V domains shown, also called anti-PTK7 antibody 3E6) VH: QVQLVESGAEVKKPGESLRISCRGSGYSFTSYWISWVRQMPGKGLEWMGRIDPSDSYTKYSPSFQGHVTISADKSISTAYLQWSSLKASDTAMYYCARRDGDYFDFDYWGQGTLVTVSS VL: not shown",0.71,86300,0.81
